In the nanobody polyreactivity screen of Harvey et al. (2022):

Assay: yeast display, Sf9 membrane polyspecificity reagent, FACS + sequencing; frameworks hold sequencing errors
In short: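 A synthetic nanobody library was expressed on Saccharomyces cerevisiae BJ5465 by galactose induction for 36–48 hours. The library was stained for 1 hour at 4 °C with 10% biotinylated, detergent-solubilized Sf9 membrane reagent and enriched with streptavidin microbeads before FACS. Low and high (top ~1%) gates were set on anti-HA fluorescence for expression and streptavidin fluorescence for reagent binding, and each polyreactivity label reflects the gate of origin.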

| Sequence | polyreactivity (PSR sort gate) |
| --- | --- |
| QVQLVESGGGLVQAGGSLRLSCAASGRTFVYNAMGWYRPAPGKERELVAAIDGGGDRTYYADSVKGRFTISRDNAKNTVYLQMNSLKPEDTAVYYCARDPGDTYYYSYPEGDYWGQGTQVTVSS | low polyreactivity |
| QVQLVDSGGGLVQAGGSLRLICAASGFIFGKYAMGWYRQAPGKEWEFVAAITGNGGSTYYADSVKGRFTISRDNAKNTVYLQMNSLKPEDTAVYYCNADRGYRRRSGMDYWGQGTQLTVSS | low polyreactivity |
| QVQLVESGGGLVQAGGSLRLSCAASGRIFTTYAMGWYRQAPGKERELVAAISQNGGSTYYADSVKGRFTISRDNAKNTVYLQMNSLKPEETAVYYCNAGPAGYYDYDYWGQGTQVTVSS | low polyreactivity |
| QVQLVESGGGLVQAGGSLRLSCAASGNIFYYNAMGWYRQAPGKERELVAAISDSGSSTHYADSVKGRFTISRDNAKNTVYLQMNSLKPEDTAVYYCGARATTNRFRYYYWGQGTQVTVSS | high polyreactivity |
| QVQLQESGGGLVQAGGSLRLSCAASGSIFVSVTMGWYRPAPGKERELVASIGRGSTTNHADSVKGRFTISRDNAKNIVYLLMNSLKPEDTAVYYCAALESYGKYHGYWGQGTQVTVSS | low polyreactivity |
| QVQLVESGGGLVQAGGSLRLSCAASGSTFSFYDMGWYRQAPGKERELVAAITGSGGTTYYADSVKGRFTISRDNAKNTVYLQMNSLKPEDTAVYYCAADSLESYPDYEYDYWGQGTQVTVSS | low polyreactivity |
| QVQLVESGGGLVQAGGSLRLSCAASGGTIAGYAMGWYRHAPGKERELVASISDGGSTNYADSVKGRFTISRDNAKNTVYLQMNSLKPEDTAVYYCADLAYVPSYTYDYWGQGTQVTVSS | low polyreactivity |
| HVQLQESGGGLVLAGGSLRLSCPASGNIVVYSYMGWYRQAPGKAREFVAAIGAGSTTYYADSVSRFTISRDNAKNSVYLQMNSLKQVDTAVYYCSVEFQYAGFWYWGQGTQVTVSS | low polyreactivity |
| QVQLEESGGGLVQAGGSLRLSCAASGFTFYGNAMGWYRQAPGKERELVATIRYRGGRTYYADSVKGRFTISRDNAKNTVYLQMNSLKPEDTAVYYCNRVGYQYGSDQEDDYWGQGTQVTVSS | high polyreactivity |
| QVQLVESGGGLVQAGGSLRLSCAASGSTFPYYAMGWYRQAPGKERELVAAITSSGGSTYYADSVKGRFTISRDNAKNTVYLQMNSLKPEDTAVYYCAKGYGPYRQMNYWGQGTQVTVSS | low polyreactivity |
| QVQLQESGGGMVQAGVSLRLSCAASGTISNAPHMGWYRQAPAKERELVAGITIGGTTYYADSVKGRFTISRDNAKNTVYLQMNSLSPGVTAVYDCAAHSEQYTPFYYWGQGTQVTVSS | low polyreactivity |
| QVQLVESGGGLVQAGGSLRLSCAASGFIFDTYAMGWYRQAPVKERELVAAISWTGTDTYYADSVKGRFTISRDNAKNTVYLQMNSLKPEDTAVYYCAARSRYKYSPSGDYWGQGTQVTVSS | high polyreactivity |
| QVQLVESGGGLVQAGGSLRLSCAASGSTFGVNDMGWYRQAPGKEREFVADITTSGGSTYYADSVKGRFTISRDHAKNTVYLQMNSLKPEDTAVYYCAADLWPFEHDDYWGQGTQVTVSS | low polyreactivity |
| QVQLVESGGGLVQAGGSLRLSCAASGSTFVTNAMGWYRQAPGKEREFVAAISNSSGSTYYADSVKGRFTISRDNEKNTVYLQMNSLKPEDTAVYYCNATPDDWLQEDYWGQGTQVTVSS | low polyreactivity |
| QDQLVESGGGLGQAGGTLRLSCAASGNTFTFNTMGWHRQEPGKEREVVAVISRSGGSTYYSDSVKGRITISRDNAKNTVYLQMNSLKPEDTAVYYCAAQGYWYGFVPYDYWGQGTQVTVSS | high polyreactivity |
| QVQLVESGGGLVQAGGSLRLICAASGIIFDSYAMGWYSQEPGKERELVAAITSDSGRTYYADSVKGRFTISRDNAKNNVYLEMNSLKPEDTAVYYCAKRWDGPYDYWGQGTQVTVSS | low polyreactivity |
| QVQLVESGGGLVQAGGSLRLSCAASGSTFDVYAMGWYRQAPGKERELVATISWIGGSTYYADSVKGRFTISRDYAKKTVYLQMNSLKPEDTAVYYCAAESSPLEYDYWGQGTQVTVSS | low polyreactivity |
| QVQLVESGGGLVQAGGSLRLTCAASARTFFRNTMGSYRQATGKERELVATISWSGGSTNSADSVKGRFTISRDNAKNTVSLQMNSLKPEDTAVYYCAAVDYDTSIYDRPGGFDYWGQGTQVTVSS | low polyreactivity |
| QFQLVESGGGLVQAGCSLRLSCAASGRTVGSNDMGWYRQAPRKEMDLFAAIPTTTASTNYADSVKGRFTISRDNAKNTVYFQMNSLKPEDNAVYYCNKQYLWYYWDGTDAEDYWGQGTQVTVSS | low polyreactivity |
| QVQLVESGGGLVQAGGSLRLSCAASGYTFYAMGWYRQAPGKERELVAAITYRGARTYYADSVKGRFTISRDNAKNTVYLQMNSLKPEDTAVYYCNADYWGQGTEVTVSS | low polyreactivity |
| QVQLVESGGGLVQAGGSLRLSCAASGRIFDPYTMGWYRQAPGKERELVAAISGRTGRTYYADSVKGRFTISRDNAKNTVYLQMNSLKPEDTAVYYCNAVRYVVLPGGPKFDYWGQGTQVTVSS | high polyreactivity |

| Sequence | polyreactivity (PSR sort gate) |
| --- | --- |
| QVQLVESGGGFVQAGGSLRLSCAASGSTFFVYAMGWYRQAPGKERELVASIRWRGSSTYYADSVKGRFTISRDNAKNTVYLQMNSLKPEDTAVYYCAATSYNGYGYWGQGTQVTVSS | high polyreactivity |
| QVQLVESGGGLVQAGGSLRLSCAASGSIFGAYAMGWYRQAPGKEWELVAAISWRDGSTYYADSVKGRFTISRDNAKNTVYLQMNCLKPEDTAVYYCAAEYVYIFYDSYYWGQGTQVTVSS | high polyreactivity |
| QVQLVESGGGLVQAGGSLRLSCAASGSTFLTNVMGWYRQAPGKEREFVAAITANGGRTYYADSVKGRFTISRDYAKMTVYLQMNSLKPEDTAVYYAVETAWSYNSNYWFDYWGEGTQVTVSS | high polyreactivity |
| QVQLVESGGGLVHAGGTLRLSCAASGSIFARYAMGWYRQAPVKERELVAAISRNGGSTYYADSVKGRFTISRDNAKNTVYLQMNSLNPEDTAVYYCAASYYVLYTREYDYWGQGSQVTVSS | low polyreactivity |
| QVQLVESVGGLVQAGGSLRLSCAASGSIFGRYVMGWYRQAPGKERELVAAITSGGTTNYADSVKGRFTISRDNAKHTVYLQMNSLKPEDTAVYSCNADYYSRIVGVRIYDYWGQGTQVTVSS | low polyreactivity |
| QVQLVESGGGLGQAGGSLRLSCAASGSIFGKNAMGWYRQAPGKETELVAAITWSGGSTYYADSVKGRFTISRDNAKNTVYLQLNSLKPEDTAVYYCNAVRVRVTSHRFRQLDYGYWGQGTQVTVSS | low polyreactivity |
| QVQLVESGAGLVQAGGSLRLSCAASGRTFSGYAMGWYRQAPGKERELVASITWSGGSTYYADSVKGRFTISRDNAKNTVYLQMNSLKPDDTAVYYCARDSPRGRVGFNYWGQGTQVTVSS | low polyreactivity |
| QVQLVESGGGLDQAGGSLRLSCAASGRISVFYAMGWYRQAPGKERELVAAISRGSSTYYADSVKGLFTISRDNAKNTVYLQMNSLKPEETAVYYCNRARYYLYDGGYWGQGTQVTVSS | high polyreactivity |
| QVQLVESGGGLVQAGGSLRLSCAASGRIFGSYAMGWYRQAPGKERELVAAITRGGSTNYADSVKGRFTISRDNAKNTVYFQMNSLKPEDTAVYYCARWVGLHYPYYYWGQGTQVTVSS | high polyreactivity |
| QVQLVESGGGLVQAGGSLRLSCAASGSTFPGNAMGWYRQAPGKERELVAAITSTGTTYYADSVKGRFTISRDNAKNTVYLQMNSLKPEDSAVYYCNADRYPDPSTFDYWGQGTLVTVSS | low polyreactivity |
| QVQLVESGGGLVQAGGSLRLSCAASGFTFRTNVMGWYRQAPGKERELVASISSTGSTNYADSVKGRFTISRDNAKNTVYLQMNSLKPEDTAVYYCARRYRYRYNYWGQGTQVTVSS | high polyreactivity |
| QVQLVETGGGLVQAVGSLRLSCAASGYTFLLYAMGWYRQAPGKERELVASISWNVGSTYYADSVKGRFTISRDNAKNTVYLQMNSLKPEDTAVYYCARGYERPRVATFHRFDYWGLGTQVTVSS | low polyreactivity |
| QVQLEESGGGLDQAGGSLRLTCAASGSIFLWNAMGWSRQSPGKERQLVAAISSGTSTIYADSVKGRFTISRDNAKNTVYLQMNSLKREDTAVYYCAARGRKNQRRYGYWGLGTQVTVSS | low polyreactivity |
| QDQLVESGAGLVQAGGSLRLSCAASGRIFDRYAMGWYRQAPGKEREMVAAITTSSGGSTYYADSVKGRFTISRDNAKNTVYLQMHSLKPEDTAVYYCAADRRYNVIGEFGYWGQGTQVTVSS | low polyreactivity |
| QVQLVESGGGLVQAGGSLRLSCAASGRIFRYYAMGWYRQAPGKERELVAAITWRGDSTYYADSVKGRFTISRDNAKNTVYLQMNSLKPEDTAVYYCNKRWTDKYDSWGQGTQVTVSS | high polyreactivity |
| QVQLVESGGGLVQAGGSLRLSCAASGSTYVYAMGLYRQAPGKERELVASISWSDSSTYYADSVKGRFTISRDNAKNTVYLQMNSLKPEDTAVYYCNADQGTRDSDYWGQGTQVTVSS | low polyreactivity |
| QVQLVESGGGLVQAGGSLRLSCAASGSIFQYNTMGWYRQAPGKESELVASISWRSGSTYYADSVKGRFTISRDNAKNTVYLQMNSLKPEDTAVYYCAAQVDPWWYDAGYDYWGQGTQVTVSS | low polyreactivity |
| QVQLVESGGGLVQAGGSLRLSCAASGSTFAPYAMGWYRHAPGKERELVASIRSTGSTNYADSVKGRFTISRDNAKNTVYLQMNSLKPEDTAVYYCAARYRRYQYRVKVDYYYWGQGTQVTVSS | high polyreactivity |
| QVQLVESGGGLVQAGGSLRLSCDASGRIFHIYAMGWYREAPGKERELVASISWSGDSTYYADSVKGRFTISRDNAKNTVYLQINSLKPEDTAVYYFAAEGEETEGYDYDYWGQGTQVTVSS | low polyreactivity |
| QVQLVESGGGLVQAGGSLRLSCAASGGTFVFYAMGWYRQAPGKERELVAAISSAGRTYYADSVKGRFTISRDNAKNTVYLQMNSLKPEDTAVYYCAAVSSQYDGRYYYWGQGTQVTVSS | high polyreactivity |
